Results from IntAct's records for PubMed 25117763.

B1: Axin interactor, dorsalization-associated protein (Mus musculus), Q8C4Q6-1 (parent)
chain: MSEVTRSLLQRWGASLRRGADFDSWGQLVEAIDEYQILARHLQKEAQAQHNNSEFTEEQKKTIGKIATCLELRSAALQSTQSQEEFKLEDLKKLEPILKNILTYNKEFPFDVQPIPLRRILAPGEEENLEFEEDEEGGAGAGPPDSFSARVPGTLLPRLPSEPGMTLLTIRIEKIGLKDAGQCIDPYITVSVKDLNGIDLTPVQDTPVASRKEDTYVHFNVDIELQKHVERLTKGAAIFFEFKHYKPKKRFTSTKCFAFMEMDEIKPGPIVIELYKKPTDFKRKKLQLLTKKPLYLHLHQSLHKE

Variants of: B1
Settings: with Axin1, O35625-2
Sequence of Axin1, O35625-2 (O35625 other isoform, or with tags, fused parts or gaps): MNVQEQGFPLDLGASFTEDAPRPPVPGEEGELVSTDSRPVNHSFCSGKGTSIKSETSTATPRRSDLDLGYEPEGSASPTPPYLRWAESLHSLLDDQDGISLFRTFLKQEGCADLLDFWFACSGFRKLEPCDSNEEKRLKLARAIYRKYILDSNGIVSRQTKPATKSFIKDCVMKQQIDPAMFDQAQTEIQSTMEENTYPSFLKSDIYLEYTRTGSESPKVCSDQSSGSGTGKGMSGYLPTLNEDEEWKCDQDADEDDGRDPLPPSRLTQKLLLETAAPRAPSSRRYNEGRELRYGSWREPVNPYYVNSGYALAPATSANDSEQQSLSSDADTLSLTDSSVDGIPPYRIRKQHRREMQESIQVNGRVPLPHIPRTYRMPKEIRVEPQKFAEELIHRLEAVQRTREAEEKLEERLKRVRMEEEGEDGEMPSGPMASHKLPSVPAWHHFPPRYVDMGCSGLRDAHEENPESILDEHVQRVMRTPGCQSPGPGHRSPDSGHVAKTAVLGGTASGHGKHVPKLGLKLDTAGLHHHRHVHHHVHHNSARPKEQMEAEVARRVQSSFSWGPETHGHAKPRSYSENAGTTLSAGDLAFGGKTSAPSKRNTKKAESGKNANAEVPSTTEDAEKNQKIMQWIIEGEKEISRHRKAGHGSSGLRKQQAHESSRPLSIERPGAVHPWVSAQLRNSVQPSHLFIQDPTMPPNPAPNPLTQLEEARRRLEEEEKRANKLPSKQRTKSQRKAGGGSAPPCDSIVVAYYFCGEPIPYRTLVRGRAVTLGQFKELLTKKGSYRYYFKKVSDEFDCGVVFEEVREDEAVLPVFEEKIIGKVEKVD

| effect of a mutation on the interaction | Variant |
| --- | --- |
| disrupting interaction | K282A;R283A;K284A;K285A |
